Assays:
[1] = target: HIV-1 92RW020 Env (HIV-1); assay: cell-based or functional assay
[2] = target: HIV-1 Env of isolate 92UG031 (pseudovirus) (HIV-1); assay: cell-based or functional assay
[3] = target: HIV-1 Env of isolate 92UG037 (pseudovirus) (HIV-1); assay: cell-based or functional assay
[4] = target: HIV-1 Env of isolate 92WR020 (pseudovirus) (HIV-1); assay: cell-based or functional assay
[5] = target: HIV-1 Env of isolate 92WR021 (pseudovirus) (HIV-1); assay: cell-based or functional assay
[6] = target: HIV-1 Env of isolate 92WR024 (pseudovirus) (HIV-1); assay: cell-based or functional assay
[7] = target: HIV-1 Env of isolate 93IN905 (HIV-1); assay: cell-based or functional assay
[8] = target: HIV-1 Env of isolate 93MW959 (HIV-1); assay: cell-based or functional assay
[9] = target: HIV-1 Env of isolate 93UG077 (pseudovirus) (HIV-1); assay: cell-based or functional assay
[10] = target: HIV-1 Env of isolate 93WR029 (pseudovirus) (HIV-1); assay: cell-based or functional assay
[11] = target: HIV-1 Env of isolate 94UG103 (pseudovirus) (HIV-1); assay: cell-based or functional assay
[12] = target: HIV-1 Env of isolate 97ZA012 (HIV-1); assay: cell-based or functional assay
[13] = target: HIV-1 Env of isolate 98IN022 (HIV-1); assay: cell-based or functional assay
[14] = target: HIV-1 Env of isolate JRCSF (HIV-1) (UniProt P20871); assay: cell-based or functional assay
[15] = target: HIV-1 Env of isolate MGRM-Chronic-B-010 (HIV-1); assay: cell-based or functional assay
[16] = target: HIV-1 Env of isolate MGRM-Chronic-B-011 (HIV-1); assay: cell-based or functional assay
[17] = target: HIV-1 Env of isolate MGRM-Chronic-B-012 (HIV-1); assay: cell-based or functional assay
[18] = target: HIV-1 Env of isolate MGRM-Chronic-B-017 (HIV-1); assay: cell-based or functional assay
[19] = target: HIV-1 Env of isolate MGRM-Chronic-B-018 (HIV-1); assay: cell-based or functional assay
[20] = target: HIV-1 Env of isolate MGRM-Chronic-B-020 (HIV-1); assay: cell-based or functional assay
[21] = target: HIV-1 Env of isolate MGRM-Chronic-B-023 (HIV-1); assay: cell-based or functional assay
[22] = target: HIV-1 Env of isolate MGRM-Chronic-B-024 (HIV-1); assay: cell-based or functional assay
[23] = target: HIV-1 Env of isolate NL43 (HIV-1); assay: cell-based or functional assay
[24] = target: HIV-1 Env of isolate PVO.4 (HIV-1); assay: cell-based or functional assay
[25] = target: HIV-1 Env of isolate QH0692.42 (HIV-1); assay: cell-based or functional assay
[26] = target: HIV-1 Env of isolate SC422661.8 (HIV-1); assay: cell-based or functional assay
[27] = target: HIV-1 Env of isolate SF162 (HIV-1) (UniProt P19550); assay: cell-based or functional assay
[28] = target: HIV-1 Env of isolate THR0.18 (HIV-1); assay: cell-based or functional assay
[29] = target: HIV-1 Env of isolate TRJ04551.58 (HIV-1); assay: cell-based or functional assay
[30] = target: HIV-1 Env of isolate TRO.11 (HIV-1); assay: cell-based or functional assay
[31] = target: HIV-1 Env of isolate VLGCB3 (HIV-1); assay: cell-based or functional assay
[32] = target: WT JR-FL gp120 (HIV-1 JR-FL); assay: ELISA, antigen-coated wells, mAb titrated; EC50 by nonlinear regression
[33] = target: HIV-1 Env of isolate MGRM-AE-004 (pseudovirus) (HIV-1); assay: cell-based or functional assay
[34] = target: HIV-1 Env of isolate MGRM-AE-005 (pseudovirus) (HIV-1); assay: cell-based or functional assay
[35] = target: HIV-1 Env of isolate MGRM-AE-006 (pseudovirus) (HIV-1); assay: cell-based or functional assay
[36] = target: HIV-1 Env of isolate MGRM-G-017 (subtype G) (HIV-1); assay: cell-based or functional assay

Chain of 4995_E20 (PGT-142) (antibody) (VH): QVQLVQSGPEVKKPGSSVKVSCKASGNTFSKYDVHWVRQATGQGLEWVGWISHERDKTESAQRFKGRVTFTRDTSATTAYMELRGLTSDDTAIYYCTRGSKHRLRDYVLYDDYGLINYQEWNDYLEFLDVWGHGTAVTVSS
Chain of 4995_E20 (PGT-142) (antibody) (VL): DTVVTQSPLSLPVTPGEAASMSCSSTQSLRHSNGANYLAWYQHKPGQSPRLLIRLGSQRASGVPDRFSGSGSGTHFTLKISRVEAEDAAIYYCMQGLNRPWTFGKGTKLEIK
Chain of 4995_P16 (PGT-145) (antibody) (VH): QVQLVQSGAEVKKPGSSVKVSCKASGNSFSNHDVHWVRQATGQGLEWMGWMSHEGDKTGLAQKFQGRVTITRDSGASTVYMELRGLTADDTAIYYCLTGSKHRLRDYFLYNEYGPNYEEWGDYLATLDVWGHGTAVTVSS
Chain of 4995_P16 (PGT-145) (antibody) (VL): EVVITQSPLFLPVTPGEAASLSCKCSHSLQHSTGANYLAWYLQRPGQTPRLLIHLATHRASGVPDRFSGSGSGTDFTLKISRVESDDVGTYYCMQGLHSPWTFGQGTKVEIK
Chain of 4970_K22 (PGT-144) (antibody) (VH): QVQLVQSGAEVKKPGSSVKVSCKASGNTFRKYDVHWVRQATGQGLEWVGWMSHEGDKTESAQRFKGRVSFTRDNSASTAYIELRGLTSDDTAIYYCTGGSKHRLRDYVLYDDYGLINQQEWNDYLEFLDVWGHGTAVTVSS
Chain of 4970_K22 (PGT-144) (antibody) (VL): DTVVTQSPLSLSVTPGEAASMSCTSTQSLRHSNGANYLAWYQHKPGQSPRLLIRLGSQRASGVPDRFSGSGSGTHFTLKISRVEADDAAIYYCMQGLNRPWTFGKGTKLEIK

With 5329_C19 (PGT-136) (antibody) the IC50, pseudovirus neutralization [1] was 0.738 µg/mL, the IC50 (µg/mL), pseudovirus neutralization [2] was greater than 50 µg/mL and the IC50 (µg/mL), pseudovirus neutralization [3] was greater than 50 µg/mL. For the same substance, the IC50 (µg/mL), pseudovirus neutralization [4] was 2.33 µg/mL, the IC50 (µg/mL), pseudovirus neutralization [5] was greater than 50 µg/mL and the IC50 (µg/mL), pseudovirus neutralization [6] was greater than 50 µg/mL. For the same substance, the IC50 (µg/mL), pseudovirus neutralization [7] was 0.011 µg/mL, the IC50 (µg/mL), pseudovirus neutralization [8] was greater than 50 µg/mL and the IC50 (µg/mL), pseudovirus neutralization [9] was greater than 50 µg/mL. The IC50 (µg/mL), pseudovirus neutralization [10] was greater than 50 µg/mL, the IC50 (µg/mL), pseudovirus neutralization [11] was greater than 50 µg/mL and the IC50 (µg/mL), pseudovirus neutralization [12] was greater than 50 µg/mL. The IC50 (µg/mL), pseudovirus neutralization [13] was 13.6 µg/mL, the IC50 (µg/mL), pseudovirus neutralization [14] was greater than 50 µg/mL and the IC50 (µg/mL), pseudovirus neutralization [15] was greater than 50 µg/mL. It also gave an IC50 (µg/mL), pseudovirus neutralization [16] greater than 50 µg/mL, an IC50 (µg/mL), pseudovirus neutralization [17] of 43.1 µg/mL and an IC50 (µg/mL), pseudovirus neutralization [18] greater than 50 µg/mL. The IC50 (µg/mL), pseudovirus neutralization [19] was greater than 50 µg/mL, the IC50 (µg/mL), pseudovirus neutralization [20] was greater than 50 µg/mL and the IC50 (µg/mL), pseudovirus neutralization [21] was greater than 50 µg/mL. The IC50 (µg/mL), pseudovirus neutralization [22] was greater than 50 µg/mL, the IC50 (µg/mL), pseudovirus neutralization [23] was 27.7 µg/mL and the IC50 (µg/mL), pseudovirus neutralization [24] was greater than 50 µg/mL. For the same substance, the IC50 (µg/mL), pseudovirus neutralization [25] was greater than 50 µg/mL, the IC50 (µg/mL), pseudovirus neutralization [26] was greater than 50 µg/mL and the IC50 (µg/mL), pseudovirus neutralization [27] was 0.482 µg/mL. It also gave an IC50 (µg/mL), pseudovirus neutralization [28] greater than 50 µg/mL, an IC50 (µg/mL), pseudovirus neutralization [29] greater than 50 µg/mL and an IC50 (µg/mL), pseudovirus neutralization [30] of 0.073 µg/mL. It also gave an IC50 (µg/mL), pseudovirus neutralization [31] greater than 50 µg/mL and an EC50 [32] of 0.2 µg/mL.
4970_K22 (PGT-144) (antibody) was tested, and the IC50, pseudovirus neutralization [1] was greater than 10 µg/mL, the IC50 (µg/mL), single-round pseudovirus neutralization [2] was 2.17 µg/mL and the IC50 (µg/mL), single-round pseudovirus neutralization [3] was 8.24 µg/mL. The IC50 (µg/mL), single-round pseudovirus neutralization [4] was greater than 50 µg/mL, the IC50 (µg/mL), single-round pseudovirus neutralization [5] was greater than 50 µg/mL and the IC50 (µg/mL), single-round pseudovirus neutralization [6] was 16.3 µg/mL. The IC50 (µg/mL), single-round pseudovirus neutralization [9] was greater than 50 µg/mL, the IC50 (µg/mL), single-round pseudovirus neutralization [10] was 4.39 µg/mL and the IC50 (µg/mL), single-round pseudovirus neutralization [11] was greater than 50 µg/mL. For the same substance, the IC50 (µg/mL), single-round pseudovirus neutralization [33] was 0.104 µg/mL, the IC50 (µg/mL), single-round pseudovirus neutralization [34] was greater than 50 µg/mL and the IC50 (µg/mL), single-round pseudovirus neutralization [35] was greater than 50 µg/mL. The IC50 (µg/mL), pseudovirus neutralization [36] was 9.97 µg/mL.
Work on 4995_E20 (PGT-142) (antibody) yielded an IC50, pseudovirus neutralization [1] greater than 10 µg/mL, an IC50 (µg/mL), single-round pseudovirus neutralization [2] of 0.05 µg/mL and an IC50 (µg/mL), single-round pseudovirus neutralization [3] of 0.557 µg/mL. It also gave an IC50 (µg/mL), single-round pseudovirus neutralization [4] of 31.5 µg/mL, an IC50 (µg/mL), single-round pseudovirus neutralization [5] greater than 50 µg/mL and an IC50 (µg/mL), single-round pseudovirus neutralization [6] of 0.069 µg/mL. The IC50 (µg/mL), single-round pseudovirus neutralization [9] was greater than 50 µg/mL, the IC50 (µg/mL), single-round pseudovirus neutralization [10] was 0.014 µg/mL and the IC50 (µg/mL), single-round pseudovirus neutralization [11] was greater than 50 µg/mL. The IC50 (µg/mL), single-round pseudovirus neutralization [33] was 0.001 µg/mL, the IC50 (µg/mL), single-round pseudovirus neutralization [34] was greater than 50 µg/mL and the IC50 (µg/mL), single-round pseudovirus neutralization [35] was greater than 50 µg/mL. The IC50 (µg/mL), pseudovirus neutralization [36] was 0.125 µg/mL.
Work on 4995_P16 (PGT-145) (antibody) yielded an IC50 (µg/mL), single-round pseudovirus neutralization [2] of 3.22 µg/mL, an IC50 (µg/mL), single-round pseudovirus neutralization [3] of 3.15 µg/mL and an IC50 (µg/mL), single-round pseudovirus neutralization [4] of 0.997 µg/mL. For the same substance, the IC50 (µg/mL), single-round pseudovirus neutralization [5] was 1.62 µg/mL, the IC50 (µg/mL), single-round pseudovirus neutralization [6] was 0.069 µg/mL and the IC50 (µg/mL), single-round pseudovirus neutralization [9] was greater than 50 µg/mL. The IC50 (µg/mL), single-round pseudovirus neutralization [10] was greater than 50 µg/mL, the IC50 (µg/mL), single-round pseudovirus neutralization [11] was 0.331 µg/mL and the IC50 (µg/mL), single-round pseudovirus neutralization [33] was 0.006 µg/mL. For the same substance, the IC50 (µg/mL), single-round pseudovirus neutralization [34] was 0.967 µg/mL, the IC50 (µg/mL), single-round pseudovirus neutralization [35] was greater than 50 µg/mL and the IC50 (µg/mL), pseudovirus neutralization [36] was 0.205 µg/mL.
